From patent publication US20190038623A1

How the values were obtained:
[1] = biological target: complement component C3 (human) (UniProt P01024); experiment: cell-based or functional assay
[2] = biological target: human complement component C5 (human) (UniProt P01031); experiment: cell-based or functional assay

Compstatin (peptide)
IC50 (µM), Inhibition of C3 Fragment deposition on artificial PNH cells (flow cytometry, anti-C3c staining, N = 2) [1]: 2.2 µM | IC50 (µM), Inhibition of C3 Fragment deposition on rabbit erythrocytes (flow cytometry, 20% C5-depleted normal human serum), N = 1 [1]: 1.4 µM | Inhibition (%) of CAP activity, CAP-mediated hemolysis of rabbit erythrocytes, Experiment 2, Compstatin 0.469 µM, Compound 1 0 µM [1]: 6.9% | Inhibition (%) of CAP activity, CAP-mediated hemolysis of rabbit erythrocytes, Experiment 2, Compstatin 0.934 µM, Compound 1 0 µM [1]: 6% | Inhibition (%) of CAP activity, CAP-mediated hemolysis of rabbit erythrocytes, Experiment 2, Compstatin 1.88 µM, Compound 1 0 µM [1]: 10% | Inhibition (%) of CAP activity, CAP-mediated hemolysis of rabbit erythrocytes, Experiment 2, Compstatin 3.75 µM, Compound 1 0 µM [1]: 15% | Inhibition (%) of CAP activity, CAP-mediated hemolysis of rabbit erythrocytes, Experiment 2, Compstatin 7.5 µM, Compound 1 0 µM [1]: 41% | Inhibition (%) of CAP activity, CAP-mediated hemolysis of rabbit erythrocytes, Experiment 2, Compstatin 15 µM, Compound 1 0 µM [1]: 80% | Inhibition (%) of CAP activity, CAP-mediated hemolysis of rabbit erythrocytes, Experiment 2, Compstatin 30 µM, Compound 1 0 µM [1]: 98% | Inhibition (%) of CAP activity, CAP-mediated hemolysis of rabbit erythrocytes, Experiment 3, Compstatin 0.469 µM, Compound 1 0 µM [1]: 13% | Inhibition (%) of CAP activity, CAP-mediated hemolysis of rabbit erythrocytes, Experiment 3, Compstatin 0.934 µM, Compound 1 0 µM [1]: 17% | Inhibition (%) of CAP activity, CAP-mediated hemolysis of rabbit erythrocytes, Experiment 3, Compstatin 1.88 µM, Compound 1 0 µM [1]: 25% | Inhibition (%) of CAP activity, CAP-mediated hemolysis of rabbit erythrocytes, Experiment 3, Compstatin 3.75 µM, Compound 1 0 µM [1]: 40% | Inhibition (%) of CAP activity, CAP-mediated hemolysis of rabbit erythrocytes, Experiment 3, Compstatin 7.5 µM, Compound 1 0 µM [1]: 63% | Inhibition (%) of CAP activity, CAP-mediated hemolysis of rabbit erythrocytes, Experiment 3, Compstatin 15 µM, Compound 1 0 µM [1]: 97% | Inhibition (%) of CAP activity, CAP-mediated hemolysis of rabbit erythrocytes, Experiment 3, Compstatin 30 µM, Compound 1 0 µM [1]: 98% | Inhibition (%) of CAP activity, CAP-mediated hemolysis of rabbit erythrocytes, Experiment 4, Compstatin 0.469 µM, Compound 1 0 µM [1]: 9% | Inhibition (%) of CAP activity, CAP-mediated hemolysis of rabbit erythrocytes, Experiment 4, Compstatin 0.934 µM, Compound 1 0 µM [1]: 12% | Inhibition (%) of CAP activity, CAP-mediated hemolysis of rabbit erythrocytes, Experiment 4, Compstatin 1.88 µM, Compound 1 0 µM [1]: 22% | Inhibition (%) of CAP activity, CAP-mediated hemolysis of rabbit erythrocytes, Experiment 4, Compstatin 3.75 µM, Compound 1 0 µM [1]: 34% | Inhibition (%) of CAP activity, CAP-mediated hemolysis of rabbit erythrocytes, Experiment 4, Compstatin 7.5 µM, Compound 1 0 µM [1]: 64% | Inhibition (%) of CAP activity, CAP-mediated hemolysis of rabbit erythrocytes, Experiment 4, Compstatin 15 µM, Compound 1 0 µM [1]: 98% | Inhibition (%) of CAP activity, CAP-mediated hemolysis of rabbit erythrocytes, Experiment 4, Compstatin 30 µM, Compound 1 0 µM [1]: 99% | Inhibition (%) of CAP activity, CAP-mediated hemolysis of rabbit erythrocytes, Experiment #1, Compstatin 0.469 µM, Compound 1 0 µM [1]: 7.3% | Inhibition (%) of CAP activity, CAP-mediated hemolysis of rabbit erythrocytes, Experiment #1, Compstatin 0.934 µM, Compound 1 0 µM [1]: 3.6% | Inhibition (%) of CAP activity, CAP-mediated hemolysis of rabbit erythrocytes, Experiment #1, Compstatin 1.88 µM, Compound 1 0 µM [1]: 8.6% | Inhibition (%) of CAP activity, CAP-mediated hemolysis of rabbit erythrocytes, Experiment #1, Compstatin 3.75 µM, Compound 1 0 µM [1]: 17% | Inhibition (%) of CAP activity, CAP-mediated hemolysis of rabbit erythrocytes, Experiment #1, Compstatin 7.5 µM, Compound 1 0 µM [1]: 38% | Inhibition (%) of CAP activity, CAP-mediated hemolysis of rabbit erythrocytes, Experiment #1, Compstatin 15 µM, Compound 1 0 µM [1]: 65% | Inhibition (%) of CAP activity, CAP-mediated hemolysis of rabbit erythrocytes, Experiment #1, Compstatin 30 µM, Compound 1 0 µM [1]: 98% | Inhibition (%) of CAP-mediated hemolysis of PNH erythrocytes, Experiment 2, Compstatin 4.69 µM alone (Compound 1 0 µM) [1]: 0% | Inhibition (%) of CAP-mediated hemolysis of PNH erythrocytes, Experiment 2, Compstatin 9.38 µM alone (Compound 1 0 µM) [1]: 0% | Inhibition (%) of CAP-mediated hemolysis of PNH erythrocytes, Experiment 2, Compstatin 18.8 µM alone (Compound 1 0 µM) [1]: 0% | Inhibition (%) of CAP-mediated hemolysis of PNH erythrocytes, Experiment 2, Compstatin 37.5 µM alone (Compound 1 0 µM) [1]: 0% | Inhibition (%) of CAP-mediated hemolysis of PNH erythrocytes, Experiment 2, Compstatin 75 µM alone (Compound 1 0 µM) [1]: 10% | Inhibition (%) of CAP-mediated hemolysis of PNH erythrocytes, Experiment 2, Compstatin 150 µM alone (Compound 1 0 µM) [1]: 71% | Inhibition (%) of CAP-mediated hemolysis of PNH erythrocytes, Experiment 2, Compstatin 300 µM alone (Compound 1 0 µM) [1]: 99% | Inhibition (%) of CAP-mediated hemolysis of PNH erythrocytes, Experiment #1, Compstatin 4.69 µM alone (Compound 1 0 µM) [1]: 0% | Inhibition (%) of CAP-mediated hemolysis of PNH erythrocytes, Experiment #1, Compstatin 9.38 µM alone (Compound 1 0 µM) [1]: 0% | Inhibition (%) of CAP-mediated hemolysis of PNH erythrocytes, Experiment #1, Compstatin 18.8 µM alone (Compound 1 0 µM) [1]: 0% | Inhibition (%) of CAP-mediated hemolysis of PNH erythrocytes, Experiment #1, Compstatin 37.5 µM alone (Compound 1 0 µM) [1]: 0% | Inhibition (%) of CAP-mediated hemolysis of PNH erythrocytes, Experiment #1, Compstatin 75 µM alone (Compound 1 0 µM) [1]: 9% | Inhibition (%) of CAP-mediated hemolysis of PNH erythrocytes, Experiment #1, Compstatin 150 µM alone (Compound 1 0 µM) [1]: 86% | Inhibition (%) of CAP-mediated hemolysis of PNH erythrocytes, Experiment #1, Compstatin 300 µM alone (Compound 1 0 µM) [1]: 98%

murine monoclonal antibody to human C5, isotype IgG1K, product No. A217 from Quidel
Inhibition (%) of CAP activity, CAP Wieslab assay, Experiment 2, Anti-C5 0.781 µg/mL, Compound 1 0 µM [2]: 8.1% | Inhibition (%) of CAP activity, CAP Wieslab assay, Experiment 2, Anti-C5 1.56 µg/mL, Compound 1 0 µM [2]: 20% | Inhibition (%) of CAP activity, CAP Wieslab assay, Experiment 2, Anti-C5 3.13 µg/mL, Compound 1 0 µM [2]: 46% | Inhibition (%) of CAP activity, CAP Wieslab assay, Experiment 2, Anti-C5 6.25 µg/mL, Compound 1 0 µM [2]: 61% | Inhibition (%) of CAP activity, CAP Wieslab assay, Experiment 2, Anti-C5 12.5 µg/mL, Compound 1 0 µM [2]: 75% | Inhibition (%) of CAP activity, CAP Wieslab assay, Experiment 2, Anti-C5 25 µg/mL, Compound 1 0 µM [2]: 85% | Inhibition (%) of CAP activity, CAP Wieslab assay, Experiment 2, Anti-C5 50 µg/mL, Compound 1 0 µM [2]: 90% | Inhibition (%) of CAP activity, CAP Wieslab assay, Experiment 3, Anti-C5 0.781 µg/mL, Compound 1 0 µM [2]: 10% | Inhibition (%) of CAP activity, CAP Wieslab assay, Experiment 3, Anti-C5 1.56 µg/mL, Compound 1 0 µM [2]: 16% | Inhibition (%) of CAP activity, CAP Wieslab assay, Experiment 3, Anti-C5 3.13 µg/mL, Compound 1 0 µM [2]: 31% | Inhibition (%) of CAP activity, CAP Wieslab assay, Experiment 3, Anti-C5 6.25 µg/mL, Compound 1 0 µM [2]: 45% | Inhibition (%) of CAP activity, CAP Wieslab assay, Experiment 3, Anti-C5 12.5 µg/mL, Compound 1 0 µM [2]: 64% | Inhibition (%) of CAP activity, CAP Wieslab assay, Experiment 3, Anti-C5 25 µg/mL, Compound 1 0 µM [2]: 79% | Inhibition (%) of CAP activity, CAP Wieslab assay, Experiment 3, Anti-C5 50 µg/mL, Compound 1 0 µM [2]: 90% | Inhibition (%) of CAP activity, CAP Wieslab assay, Experiment #1, Anti-C5 0.547 µg/mL, Compound 1 0 µM [2]: 11% | Inhibition (%) of CAP activity, CAP Wieslab assay, Experiment #1, Anti-C5 1.09 µg/mL, Compound 1 0 µM [2]: 11% | Inhibition (%) of CAP activity, CAP Wieslab assay, Experiment #1, Anti-C5 2.19 µg/mL, Compound 1 0 µM [2]: 27% | Inhibition (%) of CAP activity, CAP Wieslab assay, Experiment #1, Anti-C5 4.38 µg/mL, Compound 1 0 µM [2]: 47% | Inhibition (%) of CAP activity, CAP Wieslab assay, Experiment #1, Anti-C5 8.75 µg/mL, Compound 1 0 µM [2]: 60% | Inhibition (%) of CAP activity, CAP Wieslab assay, Experiment #1, Anti-C5 17.5 µg/mL, Compound 1 0 µM [2]: 76% | Inhibition (%) of CAP activity, CAP Wieslab assay, Experiment #1, Anti-C5 35 µg/mL, Compound 1 0 µM [2]: 87%
